Measurements: patent US20090155283A1 (published 2009)
Substitutions are numbered along the chain they refer to.

T1: IL-1R1 on MRC-5 cells (ATCC CCL-171) (human, UniProt P14778 18-569)
T1 sequence (looked up): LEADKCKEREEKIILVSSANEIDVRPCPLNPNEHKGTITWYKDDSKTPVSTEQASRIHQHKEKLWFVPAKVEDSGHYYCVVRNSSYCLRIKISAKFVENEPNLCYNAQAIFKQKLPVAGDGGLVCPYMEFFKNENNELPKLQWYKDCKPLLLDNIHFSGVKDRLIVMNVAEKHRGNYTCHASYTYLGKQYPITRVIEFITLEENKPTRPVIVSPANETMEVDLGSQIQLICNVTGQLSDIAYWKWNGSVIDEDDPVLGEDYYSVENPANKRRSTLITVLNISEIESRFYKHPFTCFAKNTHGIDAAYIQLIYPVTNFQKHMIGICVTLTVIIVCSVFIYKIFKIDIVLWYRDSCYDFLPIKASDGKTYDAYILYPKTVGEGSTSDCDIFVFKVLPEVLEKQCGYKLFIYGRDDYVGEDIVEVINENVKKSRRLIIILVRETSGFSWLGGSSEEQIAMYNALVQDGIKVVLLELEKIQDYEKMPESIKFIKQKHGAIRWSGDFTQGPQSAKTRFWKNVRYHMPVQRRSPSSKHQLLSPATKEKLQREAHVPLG

B1: DOM4-122-6 (other)
VL: DIQMTQSPSSLSASVGDRVTITCRASQWIGRELRWYQQKPGKAPMFLIYHASRLQSGVPSRFSGSGSGTDFTLTISSLQPEDFATYYCQQYHGWPLTFGQGTKVEIKR
B2: DOM4-122-23 (other)
VL: B1 VL with S56R
B3: DOM4-129-1 (other)
VL: B1 VL with W28N, G30D, S56R, G93D, W94F

These binders were tested against T1, IL-1R1 on MRC-5 cells (ATCC CCL-171) (assay: cell-based or functional assay).

ND50, inhibition of IL-1-induced IL-8 release from MRC-5 cells [nM]	Binder
~10	B1
~1	B2
~10	B3
